The target in the assay is T1, endoglin (CD105) of human endothelial cells (HUVEC and other endothelial cells) (human, UniProt P17813 26-658).
T1 construct: whole, on cells; In the immunoprecipitation the protein came from a non-denaturing lysate of 35S-methionine-labelled HUVEC; In immunofluorescence and flow cytometry it was on cells; also called endoglin-expressing HUVEC; endoglin-expressing endothelial cells
T1 sequence (looked up): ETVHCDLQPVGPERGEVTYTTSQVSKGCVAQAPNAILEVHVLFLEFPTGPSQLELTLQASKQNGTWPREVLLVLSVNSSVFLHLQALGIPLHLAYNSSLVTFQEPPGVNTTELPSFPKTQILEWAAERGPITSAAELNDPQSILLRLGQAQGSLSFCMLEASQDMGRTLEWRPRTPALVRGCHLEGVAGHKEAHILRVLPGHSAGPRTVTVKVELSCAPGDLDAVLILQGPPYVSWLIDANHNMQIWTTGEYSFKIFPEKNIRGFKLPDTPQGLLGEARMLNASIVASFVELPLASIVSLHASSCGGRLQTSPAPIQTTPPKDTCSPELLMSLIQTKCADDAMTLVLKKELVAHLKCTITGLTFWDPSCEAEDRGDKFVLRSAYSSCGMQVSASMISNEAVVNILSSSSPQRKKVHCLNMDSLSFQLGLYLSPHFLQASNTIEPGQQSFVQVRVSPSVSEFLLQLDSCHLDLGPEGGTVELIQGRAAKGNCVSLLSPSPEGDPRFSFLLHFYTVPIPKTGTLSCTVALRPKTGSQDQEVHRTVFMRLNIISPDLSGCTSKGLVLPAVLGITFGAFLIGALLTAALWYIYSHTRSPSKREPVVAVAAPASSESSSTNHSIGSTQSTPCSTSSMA
In words: immunoprecipitation from non-denaturing lysate of 35S-methionine-labelled HUVEC.

Protocol: Endoglin from primary human umbilical cord endothelial cells (HUVEC) was detected by means of immunoprecipitation under non-denaturing conditions. For this purpose, the [³⁵S]-methionine-labelled endothelial cells were lysed with lysing buffer (10 mM Tris-HCl pH 7.5, 150 mM NaCl, 1% sodium deoxycholate, 1% Nonidet P40) for 30 min at 4° C. […] The complexes were washed several times with lysing buffer and finally resuspended in 20 μL SDS-PAGE charge buffer. After separation in the SDS-polyacrylamide gel, the gel was immobilised for 30 min in 30% methanol and 10% acetic acid and subsequently mixed with amplification solution (Amersham-Buchler). The gel was dried and exposed with an x-ray film.

B1: scFv C4 (anti-endoglin polypeptide C4 in the form of an scFv fragment) (scFv, not shown: small tags and cut ends)
scFv: AQVQLVQSGAEVKKPGATVKISCKVSGYTFTDYYMHWVQQAPGKGLEWMGLVDPEDGETIYAEKFQGRVTITADTSTDTAYMELSSLRSEDTAVYYCARRTTHGPDPHWGQGTLVTVSSGGGGSGGGGSGGSALDIQLTQSPSSLSASVGDRVTITCRASQSISSYLNWYQRKPGKAPKLLIYAASSLQSGVPSRFSGSGSGTDFTLTISSLQPEDFATYYCQQSYSTRTFGQGTKLEIKR
notes: also called polypeptide scFv C4; anti-endoglin-antibody
For B1, the binding result is on record as “binds”.

The values are drawn from US20040053329A1 (published 2004).
